The record followed here is patent US20080311599.

Substitutions are numbered along the chain they refer to.

One data set has as its target T1, p72 (1-600).
T1 chain: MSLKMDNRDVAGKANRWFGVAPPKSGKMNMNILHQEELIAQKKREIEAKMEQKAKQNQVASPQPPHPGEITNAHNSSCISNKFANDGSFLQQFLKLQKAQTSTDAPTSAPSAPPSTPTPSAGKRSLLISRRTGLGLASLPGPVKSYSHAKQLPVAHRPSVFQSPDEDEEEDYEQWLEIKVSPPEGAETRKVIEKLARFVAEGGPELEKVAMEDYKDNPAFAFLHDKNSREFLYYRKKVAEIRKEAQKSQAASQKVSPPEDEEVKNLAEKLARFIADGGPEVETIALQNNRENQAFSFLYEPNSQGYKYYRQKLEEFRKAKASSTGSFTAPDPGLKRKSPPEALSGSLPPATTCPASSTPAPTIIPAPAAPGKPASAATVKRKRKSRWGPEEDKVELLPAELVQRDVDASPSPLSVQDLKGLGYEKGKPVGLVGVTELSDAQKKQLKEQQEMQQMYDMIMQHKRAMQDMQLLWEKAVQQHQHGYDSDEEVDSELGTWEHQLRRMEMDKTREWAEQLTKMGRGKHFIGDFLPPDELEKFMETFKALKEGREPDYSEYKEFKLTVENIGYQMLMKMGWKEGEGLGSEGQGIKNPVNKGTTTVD

The next data set concerns the target T2, p72 (D600E).
T2 chain: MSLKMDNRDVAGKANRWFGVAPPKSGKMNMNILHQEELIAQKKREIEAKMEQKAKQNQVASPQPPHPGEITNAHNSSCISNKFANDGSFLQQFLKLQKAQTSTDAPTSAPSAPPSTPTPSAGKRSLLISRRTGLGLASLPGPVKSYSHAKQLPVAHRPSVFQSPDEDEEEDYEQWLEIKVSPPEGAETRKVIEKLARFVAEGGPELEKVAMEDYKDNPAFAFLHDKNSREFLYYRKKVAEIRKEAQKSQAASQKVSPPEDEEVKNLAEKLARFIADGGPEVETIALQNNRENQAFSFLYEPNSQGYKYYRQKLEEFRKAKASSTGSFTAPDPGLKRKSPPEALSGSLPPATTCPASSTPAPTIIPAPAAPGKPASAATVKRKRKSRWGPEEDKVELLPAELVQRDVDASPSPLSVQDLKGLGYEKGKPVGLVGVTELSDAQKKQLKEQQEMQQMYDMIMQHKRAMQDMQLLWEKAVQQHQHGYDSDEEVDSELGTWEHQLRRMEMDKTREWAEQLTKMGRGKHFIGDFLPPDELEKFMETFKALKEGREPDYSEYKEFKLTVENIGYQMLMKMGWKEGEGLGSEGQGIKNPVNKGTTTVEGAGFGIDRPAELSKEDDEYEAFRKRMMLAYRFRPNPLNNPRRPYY

A further data set addresses T3, p72.
T3 chain: T2 chain with E600D

B1: recombinant active caspase-8 (protein)
chain 1: EELCGVMTISDSPREQDSESQTLDKVYQMKSKPRGYCLIINNHNFAKAREKVPKLHSIRDRNGTHLDAGALTTTFEELHFEIKPHHDCTVEQIYEILKIYQLMDHSNMDCFICCILSHGDKGIIYGTDGQEAPIYELTSQFTGLKCPSLAGKPKVFFI
chain 2: MDFSRNLYDIGEQLDSEDLASLKFLSLDYIPQRKQEPIKDALMLFQRLQEKRMLEESNLSFLKELLFRINRLDLLITYLNTRKEEMERELQTPGRAQISAYRFHFCRMSWAEANSQCQTQSVPFWRRVDHLLIRVMLYQISEEVSRSELRSFKFLLQEEISKCKLDDDMNLLDIFIEMEKRVILGEGKLDILKRVCAQINKSLLKIINDYEEFSKGEELCGVMTISDSPREQDSESQTLDKVYQMKSKPRGYCLIINNHNFAKAREKVPKLHSIRDRNGTHLDAGALTTTFEELHFEIKPHHDCTVEQIYEILKIYQLMDHSNMDCFICCILSHGDKGIIYGTDGQEAPIYELTSQFTGLKCPSLAGKPKVFFIQACQGDNYQKGIPVETDSEEQPYLEMDLSSPQTRYIPDEADFLLGMATVNNCVSYRNPAEGTWYIQSLCQSLRERCPRGDDILTILTEVNYEVSNKDDKKNMGKQMPQPTFTLRKKLVFPSD
As to B1, the “cleavage of 35S-labelled p72 mutant in vitro, SDS-PAGE and phospho-imaging” value was “The p72 1-600 mutant co-migrates with the 68 kDa fragment produced after cleavage of the wild type p72 and is not further cleaved by addition of caspase-8 (lanes 2 and 5)” with p72 (1-600); “the same protein profile of p72 D600E mutant is observed in the presence or absence of caspase-8” with p72 (D600E). The “cleavage of 35S-labelled p72 in vitro, SDS-PAGE and phospho-imaging” value with p72 was “This band disappears after addition of activated caspase-8 for 1 hour and a new smaller fragment corresponding to 68 kDa appears (lane 4)”.
